{
  "source": "paper PMC6274577",
  "about": "(2016)",
  "key": {"[1]": {"molecular_target": "IL-11Rα (Mus musculus) (UniProt Q64385)", "sequence (Q64385 24-372)": "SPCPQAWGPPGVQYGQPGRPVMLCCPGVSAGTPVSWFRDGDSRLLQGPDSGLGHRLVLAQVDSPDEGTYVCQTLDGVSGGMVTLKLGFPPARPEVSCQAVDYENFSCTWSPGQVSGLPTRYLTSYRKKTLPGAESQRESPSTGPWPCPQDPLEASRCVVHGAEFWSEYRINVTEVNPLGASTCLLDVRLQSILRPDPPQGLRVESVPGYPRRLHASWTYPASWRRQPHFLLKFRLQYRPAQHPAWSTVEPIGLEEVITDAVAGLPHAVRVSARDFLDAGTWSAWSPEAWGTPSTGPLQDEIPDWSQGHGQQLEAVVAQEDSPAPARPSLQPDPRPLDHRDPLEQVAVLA", "test": "cell binding", "details": "cited from earlier work"}, "[2]": {"molecular_target": "recombinant extracellular domain of human interleukin-11 receptor subunit α (M1-V363) with a fused polyhistidine tag at the C-terminus (human) (UniProt Q14626)"}, "[3]": {"molecular_target": "sIL-11Rα ECD (Homo sapiens) (UniProt Q14626)", "test": "SPR", "details": "cited from earlier work"}, "[4]": {"molecular_target": "murine recombinant interleukin-11 (rIL-11), Mus musculus, mature protein lacking Pro1 (Mus musculus) (UniProt P47873)", "test": "SPR; biotinylated rIL-11 immobilised on NeutrAvidin NLC sensor chip (up to 2000 RU); 5-80 nM sIL-11Rα as analyte; 25 °C; PBS, 0.05% TWEEN 20, pH 7.4; heterogeneous ligand model (two ligand populations)"}, "[5]": {"molecular_target": "macaque recombinant interleukin-11 (rIL-11), Macaca fascicularis, mature protein lacking Pro1 (Macaca fascicularis) (UniProt P20808)", "test": "SPR; biotinylated rIL-11 immobilised on NeutrAvidin NLC sensor chip (up to 2000 RU); 5-80 nM sIL-11Rα as analyte; 25 °C; PBS, 0.05% TWEEN 20, pH 7.4; heterogeneous ligand model (two ligand populations)"}, "[6]": {"molecular_target": "T1, sIL-11Rα ECD (Homo sapiens, UniProt Q14626)", "T1 chain": "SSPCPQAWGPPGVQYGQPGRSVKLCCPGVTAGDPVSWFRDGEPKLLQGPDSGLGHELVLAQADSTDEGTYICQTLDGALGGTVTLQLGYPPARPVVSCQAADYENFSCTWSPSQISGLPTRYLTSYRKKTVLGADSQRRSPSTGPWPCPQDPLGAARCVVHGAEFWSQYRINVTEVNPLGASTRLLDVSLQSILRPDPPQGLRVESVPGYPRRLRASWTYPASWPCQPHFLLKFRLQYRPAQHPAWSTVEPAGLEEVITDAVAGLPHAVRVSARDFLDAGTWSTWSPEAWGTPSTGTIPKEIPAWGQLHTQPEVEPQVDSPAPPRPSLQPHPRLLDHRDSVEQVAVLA", "test": "SPR"}},
  "note": "Values joined by “and” are separate entries in the source; they are usually repeats but may differ in a detail not shown here. Equal values may be shown once.",
  "data": [
    {"molecule": "IL-11 (from UniProt P47873)", "values": [
      {"measurement": "Kd", "setting": "[1]", "result": 10, "unit": "nM"}
    ]},
    {"molecule": "macaque recombinant interleukin-11 (rIL-11), Macaca fascicularis, mature protein lacking Pro1 (from UniProt P20808 23-199) (ligand)", "values": [
      {"measurement": "EC50 of STAT3 activation (SEAP secretion, QUANTI-Blue assay) in HEK-Blue IL-6 cells stably transfected with human IL-11Rα gene", "setting": "[2]", "result": 0.006, "unit": "nM"}
    ]},
    {"molecule": "IL-11 (from UniProt P20809)", "values": [
      {"measurement": "Kd", "setting": "[3]", "result": "21.9 nM and 7 nM"}
    ]},
    {"molecule": "murine recombinant interleukin-11 (rIL-11), Mus musculus, mature protein lacking Pro1 (from UniProt P47873 23-199) (ligand)", "values": [
      {"measurement": "EC50 of STAT3 activation (SEAP secretion, QUANTI-Blue assay) in HEK-Blue IL-6 cells stably transfected with human IL-11Rα gene", "setting": "[2]", "result": 0.084, "unit": "nM"}
    ]},
    {"molecule": "recombinant extracellular domain of human interleukin-11 receptor subunit α (M1-V363) with a fused polyhistidine tag at the C-terminus (receptor) SSPCPQAWGPPGVQYGQPGRSVKLCCPGVTAGDPVSWFRDGEPKLLQGPDSGLGHELVLAQADSTDEGTYICQTLDGALGGTVTLQLGYPPARPVVSCQAADYENFSCTWSPSQISGLPTRYLTSYRKKTVLGADSQRRSPSTGPWPCPQDPLGAARCVVHGAEFWSQYRINVTEVNPLGASTRLLDVSLQSILRPDPPQGLRVESVPGYPRRLRASWTYPASWPCQPHFLLKFRLQYRPAQHPAWSTVEPAGLEEVITDAVAGLPHAVRVSARDFLDAGTWSTWSPEAWGTPSTGTIPKEIPAWGQLHTQPEVEPQVDSPAPPRPSLQPHPRLLDHRDSV", "values": [
      {"measurement": "Kd1 (KD, ligand population 1)", "setting": "[4]", "result": 2.2, "unit": "nM"},
      {"measurement": "Kd2 (KD, ligand population 2)", "setting": "[4]", "result": 14.6, "unit": "nM"},
      {"measurement": "kd1 (koff, ligand population 1)", "setting": "[4]", "result": 0.0007, "unit": "s⁻¹"},
      {"measurement": "kd2 (koff, ligand population 2)", "setting": "[4]", "result": 0.0061, "unit": "s⁻¹"},
      {"measurement": "Kd1 (KD, ligand population 1)", "setting": "[5]", "result": 4.2, "unit": "nM"},
      {"measurement": "Kd2 (KD, ligand population 2)", "setting": "[5]", "result": 8.9, "unit": "nM"},
      {"measurement": "kd1 (koff, ligand population 1)", "setting": "[5]", "result": 0.000815, "unit": "s⁻¹"},
      {"measurement": "kd2 (koff, ligand population 2)", "setting": "[5]", "result": 0.0038, "unit": "s⁻¹"}
    ]},
    {"molecule": "IL-11 (protein) PGPPPGSPRASPDPRAELDSTVLLTRSLLEDTRQLTIQLKDKFPADGDHNLDSLPTLAMSAGALGALQLPSVLTRLRADLLSYLRHVQWLRRAMGSSLKTLEPELGTLQTRLDRLLRRLQLLMSRLALPQLPPDPPAPPLAPPSSTWGGIRAAHAILGGLHLTLDWAVRGLLLLKTRL", "values": [
      {"measurement": "Kd", "setting": "[6]", "result": "8.9 nM and 4.2 nM"}
    ]}
  ]
}
